Data reported in article PMC8287583, “Biochemical and Phylogenetic Characterization of a Novel NADP^+-Specific Isocitrate Dehydrogenase From the Marine Microalga Phaeodactylum tricornutum” (Frontiers in Molecular Biosciences, 2021).
Each block holds one molecule with its values, some of them ahead of it.

Experiments:
[1] = biological target: PtIDH2 V609L mutant (Phaeodactylum tricornutum CCAP 1055/1); test: SEC; mutant forms of PtIDH2, Superdex 200 (10/300), 0.5 ml/min; salt of the buffer not stated for this panel
[2] = biological target: PtIDH2 L742F mutant (Phaeodactylum tricornutum CCAP 1055/1); test: as above
[3] = biological target: PtIDH2 A718P mutant (Phaeodactylum tricornutum CCAP 1055/1); test: as above
[4] = biological target: Phaeodactylum tricornutum NADP+-specific isocitrate dehydrogenase 2 (PtIDH2), mature form without the signal and transit peptide (Phaeodactylum tricornutum CCAP 1055/1); test: SEC-MALS; Superdex 200 (10/300) Increase, 0.5 ml/min, 20 mM Tris-HCl, 10% glycerol, 300 mM NaCl, pH 7.5
[5] = biological target: Phaeodactylum tricornutum NADP+-specific isocitrate dehydrogenase 2 (PtIDH2), mature form without the signal and transit peptide (Phaeodactylum tricornutum CCAP 1055/1); test: SEC; Superdex 200 (10/300) Increase, 0.5 ml/min, 20 mM Tris-HCl, 10% glycerol, pH 7.5, 300 mM NaCl (low salt); calibrated with five protein standards
[6] = biological target: Phaeodactylum tricornutum NADP+-specific isocitrate dehydrogenase 2 (PtIDH2), mature form without the signal and transit peptide (Phaeodactylum tricornutum CCAP 1055/1); test: SEC; Superdex 200 (10/300) Increase, 0.5 ml/min, 20 mM Tris-HCl, 10% glycerol, pH 7.5, 1,000 mM NaCl (high salt); sample incubated in that buffer before chromatography; tetramer to dimers
[7] = substrate: O=C(O)CC(C(=O)O)C(O)C(=O)O; test: purified protein; type: biochemical, Phaeodactylum tricornutum; conditions: Mn2+ 2.0 mM, 0.5 mM NADP+ fixed, 50 mM Tris-HCl pH 8.0, 25 °C, DL-isocitrate used
[8] = substrate: NC(=O)c1ccc[n+]([C@@H]2O[C@H](COP(=O)(O)OP(=O)(O)OC[C@H]3O[C@@H](n4cnc5c(N)ncnc54)[C@H](OP(=O)(O)O)[C@@H]3O)[C@@H](O)[C@H]2O)c1; test: purified protein; type: biochemical, Phaeodactylum tricornutum; conditions: 50 mM Tris-HCl pH 8.0, 25 °C
[9] = substrate: NC(=O)c1ccc[n+]([C@@H]2O[C@H](COP(=O)(O)OP(=O)(O)OC[C@H]3O[C@@H](n4cnc5c(N)ncnc54)[C@H](O)[C@@H]3O)[C@@H](O)[C@H]2O)c1; test: purified protein; type: biochemical, Phaeodactylum tricornutum; conditions: DL-isocitrate, 50 mM Tris-HCl pH 8.0, 25 °C, metal not given (wild-type is the Mn2+ value)
[10] = Mn2+ 2.0 mM, 1.0 mM DL-isocitrate fixed
[11] = DL-isocitrate, metal not given (wild-type is the Mn2+ value)

stoichiometry N [1]: 4
Molecule: PtIDH2 V609L mutant (enzyme)

stoichiometry N [2]: 4
Molecule: PtIDH2 L742F mutant (enzyme)

stoichiometry N [3]: 4
Molecule: PtIDH2 A718P mutant (enzyme)

stoichiometry N [4]: 4
stoichiometry N [5]: 4
stoichiometry N [6]: 2
Molecule: Phaeodactylum tricornutum NADP+-specific isocitrate dehydrogenase 2 (PtIDH2), mature form without the signal and transit peptide (enzyme)

B1: PtIDH2 (Phaeodactylum tricornutum CCAP 1055/1) (protein)
chain: PPTSNHRHQPLEHARGSILYTETDEAPALATFSLYPVISKFSALANVDIVPCDISVAGRVLAAFPECLKPSQRVPDNLSYLGKKALEADCAIVKLPNISAPLNQLLECVNELRHKGYDVPLYPHEPSNVEETDVKHRYDKLMGSAVNPVLREGNSDRRVAAPVKAYAQKNPHRMGLWSKASRTHVAHMETGDFYETEQSAVMALPTSVSIVLATKNEGEIVLKAETPLEEGEVVDASRMSVKSLRDFYEREMQDAKDSELMLSLHLKATMMKVSDPIMFGHAIRVFFQDAFDKHGEVLASIGANPNGGLGSVYETIKSKLPADQAATIQADFEACFEDRPWLAMVDSDKGITNLHAPNDIIIDASMPVVVRDSGKMWNKLGELEDVKCLIPDRCYATMYQEVLSYVKTKGQFDVATMGSVANVGLMAKKAEEYGSHDKTFEIPSDGRVVVKDNNTGEVYFEHVVNAGDVWRMCQTKDVAIRDWVRLAVERARATGDRTIFWLDKRRAHDASLIKKVNTYLKDHDTDGLDISIMRPVDAVRISMERATDGKNTISVTGNVLRDYLTDLFPILELGTSAKMLSIVPLLAGGGLYETGAGGSAPKHVQQFVKEGHLRWDSLGEYLALAVALEGLADTAGNPKAKILGDCLNKAVGRILTNRKSPSRVVNQIDNRATNFYVSLYWADFLQQEDPSYKAIFESLTENRGKIVEEFSQCQGTAVDLGGYYLFDPAKTKAAMNPSPTLNKILSSFGPDMN
notes: mature form without putative signal and transit peptide (residues 1-58 of 811 removed), 753 residues, codon-optimized, 6xHis tag from pET-28b (NdeI/XhoI), E. coli Rosetta (DE3); ~80 kDa subunit (theoretical ~82 kDa), ~320 kDa homotetramer; N-term of insert after Met: FRSSTVL (from primer); C-term SSFGPDMN (from primers)
Km [7]: 42.69 ± 8.2 µM
Km [8, 10]: 37.37 ± 4.02 µM
kcat [8, 10]: 119 ± 11 s⁻¹
kcat/Km [8, 10]: 3.22e+06 M⁻¹ s⁻¹

B2: PtIDH2 (Phaeodactylum tricornutum CCAP 1055/1; H661L/K660T/R672D/R721S) (protein)
chain: PPTSNHRHQPLEHARGSILYTETDEAPALATFSLYPVISKFSALANVDIVPCDISVAGRVLAAFPECLKPSQRVPDNLSYLGKKALEADCAIVKLPNISAPLNQLLECVNELRHKGYDVPLYPHEPSNVEETDVKHRYDKLMGSAVNPVLREGNSDRRVAAPVKAYAQKNPHRMGLWSKASRTHVAHMETGDFYETEQSAVMALPTSVSIVLATKNEGEIVLKAETPLEEGEVVDASRMSVKSLRDFYEREMQDAKDSELMLSLHLKATMMKVSDPIMFGHAIRVFFQDAFDKHGEVLASIGANPNGGLGSVYETIKSKLPADQAATIQADFEACFEDRPWLAMVDSDKGITNLHAPNDIIIDASMPVVVRDSGKMWNKLGELEDVKCLIPDRCYATMYQEVLSYVKTKGQFDVATMGSVANVGLMAKKAEEYGSHDKTFEIPSDGRVVVKDNNTGEVYFEHVVNAGDVWRMCQTKDVAIRDWVRLAVERARATGDRTIFWLDKRRAHDASLIKKVNTYLKDHDTDGLDISIMRPVDAVRISMERATDGKNTISVTGNVLRDYLTDLFPILELGTSAKMLSIVPLLAGGGLYETGAGGSAPTLVQQFVKEGHLDWDSLGEYLALAVALEGLADTAGNPKAKILGDCLNKAVGRILTNRKSPSSVVNQIDNRATNFYVSLYWADFLQQEDPSYKAIFESLTENRGKIVEEFSQCQGTAVDLGGYYLFDPAKTKAAMNPSPTLNKILSSFGPDMN
notes: as for B1
Km [9]: 11,479 ± 299 μM
kcat [9]: 2.25 ± 0.18 s⁻¹
kcat/Km [9]: 200 M⁻¹ s⁻¹

B3: PtIDH2 (Phaeodactylum tricornutum CCAP 1055/1; H661L/R672D/R721S) (protein)
chain: PPTSNHRHQPLEHARGSILYTETDEAPALATFSLYPVISKFSALANVDIVPCDISVAGRVLAAFPECLKPSQRVPDNLSYLGKKALEADCAIVKLPNISAPLNQLLECVNELRHKGYDVPLYPHEPSNVEETDVKHRYDKLMGSAVNPVLREGNSDRRVAAPVKAYAQKNPHRMGLWSKASRTHVAHMETGDFYETEQSAVMALPTSVSIVLATKNEGEIVLKAETPLEEGEVVDASRMSVKSLRDFYEREMQDAKDSELMLSLHLKATMMKVSDPIMFGHAIRVFFQDAFDKHGEVLASIGANPNGGLGSVYETIKSKLPADQAATIQADFEACFEDRPWLAMVDSDKGITNLHAPNDIIIDASMPVVVRDSGKMWNKLGELEDVKCLIPDRCYATMYQEVLSYVKTKGQFDVATMGSVANVGLMAKKAEEYGSHDKTFEIPSDGRVVVKDNNTGEVYFEHVVNAGDVWRMCQTKDVAIRDWVRLAVERARATGDRTIFWLDKRRAHDASLIKKVNTYLKDHDTDGLDISIMRPVDAVRISMERATDGKNTISVTGNVLRDYLTDLFPILELGTSAKMLSIVPLLAGGGLYETGAGGSAPKLVQQFVKEGHLDWDSLGEYLALAVALEGLADTAGNPKAKILGDCLNKAVGRILTNRKSPSSVVNQIDNRATNFYVSLYWADFLQQEDPSYKAIFESLTENRGKIVEEFSQCQGTAVDLGGYYLFDPAKTKAAMNPSPTLNKILSSFGPDMN
notes: as for B1
Km [8, 11]: 2,704 ± 142.8 μM
kcat [8, 11]: 1.01 ± 0.07 s⁻¹
kcat/Km [8, 11]: 400 M⁻¹ s⁻¹
Km [9]: 5,825 ± 307 μM
kcat [9]: 7.67 ± 1.04 s⁻¹
kcat/Km [9]: 1300 M⁻¹ s⁻¹

B4: PtIDH2 (Phaeodactylum tricornutum CCAP 1055/1; H661L/R672D) (protein)
chain: PPTSNHRHQPLEHARGSILYTETDEAPALATFSLYPVISKFSALANVDIVPCDISVAGRVLAAFPECLKPSQRVPDNLSYLGKKALEADCAIVKLPNISAPLNQLLECVNELRHKGYDVPLYPHEPSNVEETDVKHRYDKLMGSAVNPVLREGNSDRRVAAPVKAYAQKNPHRMGLWSKASRTHVAHMETGDFYETEQSAVMALPTSVSIVLATKNEGEIVLKAETPLEEGEVVDASRMSVKSLRDFYEREMQDAKDSELMLSLHLKATMMKVSDPIMFGHAIRVFFQDAFDKHGEVLASIGANPNGGLGSVYETIKSKLPADQAATIQADFEACFEDRPWLAMVDSDKGITNLHAPNDIIIDASMPVVVRDSGKMWNKLGELEDVKCLIPDRCYATMYQEVLSYVKTKGQFDVATMGSVANVGLMAKKAEEYGSHDKTFEIPSDGRVVVKDNNTGEVYFEHVVNAGDVWRMCQTKDVAIRDWVRLAVERARATGDRTIFWLDKRRAHDASLIKKVNTYLKDHDTDGLDISIMRPVDAVRISMERATDGKNTISVTGNVLRDYLTDLFPILELGTSAKMLSIVPLLAGGGLYETGAGGSAPKLVQQFVKEGHLDWDSLGEYLALAVALEGLADTAGNPKAKILGDCLNKAVGRILTNRKSPSRVVNQIDNRATNFYVSLYWADFLQQEDPSYKAIFESLTENRGKIVEEFSQCQGTAVDLGGYYLFDPAKTKAAMNPSPTLNKILSSFGPDMN
notes: as for B1
Km [8, 11]: 47,650 ± 8,344 μM
kcat [8, 11]: 22.1 ± 5.5 s⁻¹
kcat/Km [8, 11]: 500 M⁻¹ s⁻¹
Km [9]: 10,271 ± 1,448 μM
kcat [9]: 7.22 ± 0.6 s⁻¹
kcat/Km [9]: 700 M⁻¹ s⁻¹
